The target in series [1] is T1, PfSSB wild type, unlabeled (Plasmodium falciparum, UniProt Q8I415 77-284). The experiment in a line: competition; calculated from DCC-PfSSB Kd and 25-fold ratio; high salt; High salt buffer (composition not in material) or low salt buffer (20 mM NaCl); pH and temperature not in material. As to conditions: protein: recombinant; chain copies: 4; single strand.
The target of series [2] is T2, DCC-PfSSB (wild-type PfSSB labeled with IDCC) (Plasmodium falciparum, UniProt Q8I415 77-284). The experiment in a line: fluorescence titration; high salt, 125 pM DCC-PfSSB; single titration; High salt buffer (composition not in material) or low salt buffer (20 mM NaCl); pH and temperature not in material. The conditions noted are these: protein: recombinant; tags: DCC (diethylaminocoumarin) at C93; chain copies: 4; single strand.

For series [3], the target named is T1, PfSSB wild type, unlabeled. Description: competition; high salt, equimolar labeled and unlabeled PfSSB; High salt buffer (composition not in material) or low salt buffer (20 mM NaCl); pH and temperature not in material. The conditions noted are these: protein: recombinant; chain copies: 4; single strand.
For series [4], the target named is T2, DCC-PfSSB (wild-type PfSSB labeled with …). The experiment in a line: stopped-flow kinetics (koff 0.014 s-1 / kon 199 uM-1s-1); low salt, 20 mM NaCl; koff by wtSSB displacement; High salt buffer (composition not in material) or low salt buffer (20 mM NaCl); pH and temperature not in material. The conditions noted are these: protein: recombinant; tags: DCC (diethylaminocoumarin) at C93; chain copies: 4; single strand.

Series [5] shares this target. Description: stopped-flow kinetics (koff/kon); high salt (salt inferred); High salt buffer (composition not in material) or low salt buffer (20 mM NaCl); pH and temperature not in material. The conditions noted are these: protein: recombinant; tags: DCC (diethylaminocoumarin) at C93; chain copies: 4; single strand.
In series [6] the target is PfSSB C93A G103C, 6-IATR labeled (Plasmodium falciparum, UniProt Q8I415 77-284, C93A;G103C). The experiment in a line: fluorescence change; high salt; High salt buffer (composition not in material) or low salt buffer (20 mM NaCl); pH and temperature not in material. As to conditions: protein: recombinant; tags: tetramethylrhodamine (6-IATR) at C103; chain copies: 4; single strand.

In series [7] the target is PfSSB wild type, 5-IATR labeled (Plasmodium falciparum, UniProt Q8I415 77-284). The series is described as above. The conditions noted are these: protein: recombinant; tags: tetramethylrhodamine (5-IATR) at C93; chain copies: 4; single strand.
Series [8] has as its target PfSSB C93A G102C, IDCC labeled (Plasmodium falciparum, UniProt Q8I415 77-284, C93A;G102C). Described as above. The conditions noted are these: protein: recombinant; tags: DCC at C102; chain copies: 4; single strand.
The target of series [9] is T2, DCC-PfSSB (wild-type PfSSB labeled with …). The series is described as above. As to conditions: protein: recombinant; tags: DCC (diethylaminocoumarin) at C93; chain copies: 4; single strand.
The target of series [10] is PfSSB C93A W166C, 5-IATR labeled (Plasmodium falciparum, UniProt Q8I415 77-284, C93A;W166C). The series is described as above. The conditions noted are these: protein: recombinant; tags: tetramethylrhodamine (5-IATR) at C166; chain copies: 4; single strand.
Series [11] deals with PfSSB Y156R, IDCC labeled (Plasmodium falciparum, UniProt Q8I415 77-284, Y156R). The series is described as above. As to conditions: protein: recombinant; tags: DCC at C93; chain copies: 4; single strand.
Series [12] addresses PfSSB C93A G103C, IDCC labeled (Plasmodium falciparum, UniProt Q8I415 77-284, C93A;G103C). The description is as above. As to conditions: protein: recombinant; tags: DCC at C103; chain copies: 4; single strand.
Series [13] addresses T2, DCC-PfSSB (wild-type PfSSB labeled with …). Description: fluorescence titration; high salt, 250 nM protein; two dT35 per tetramer; kon 109 uM-1s-1; High salt buffer (composition not in material) or low salt buffer (20 mM NaCl); pH and temperature not in material. As to conditions: protein: recombinant; tags: DCC (diethylaminocoumarin) at C93; chain copies: 4; single strand; two copies per tetramer at saturation.

The values that follow come from paper PMC5821389, “Fluorescent single-stranded DNA-binding protein from Plasmodium falciparum as a biosensor for single-stranded DNA”.

B1: dT70 (ssDNA)
DNA: TTTTTTTTTTTTTTTTTTTTTTTTTTTTTTTTTTTTTTTTTTTTTTTTTTTTTTTTTTTTTTTTTTTTTT
The Kd is the free concentration of one partner at which half of the binding sites on the other are occupied at equilibrium, for simple one-to-one binding. B1: the dissociation constant Kd was less than 0.2 pM in [1], 1.2 ± 0.5 pM in series [2], 70 pM in series [4] and less than 4.6 pM in series [5]. For the same molecule, the binding signal in series [3] was > 25 fold tighter than DCC-PfSSB; in series [6], 3.5 ± 0.4 fluorescence ratio +/- dT70; in [7], 9.1 ± 0.2 fluorescence ratio +/- dT70; in series [8], 1.8 ± 0.09 fluorescence ratio +/- dT70; in series [9] it was 20.1 ± 0.1 fluorescence ratio +/- dT70; in series [10], 12.8 ± 0.5 fluorescence ratio +/- dT70. Moreover, the binding signal in series [11] was 12.3 ± 0.07 fluorescence ratio +/- dT70; in series [12], 3.5 ± 0.08 fluorescence ratio +/- dT70.

In the case of TTTTTTTTTTTTTTTTTTTTTTTTTTTTTTTTTTT (ssDNA) [dT35], in [13], the binding result was “binds”.
